Measurements taken from paper PMC8412382.

Molecular target: bovine albumin (BSA) (bovine, UniProt P02769 25-607)
Experiment: SPR

Sequence of bovine albumin (BSA) (P02769 25-607): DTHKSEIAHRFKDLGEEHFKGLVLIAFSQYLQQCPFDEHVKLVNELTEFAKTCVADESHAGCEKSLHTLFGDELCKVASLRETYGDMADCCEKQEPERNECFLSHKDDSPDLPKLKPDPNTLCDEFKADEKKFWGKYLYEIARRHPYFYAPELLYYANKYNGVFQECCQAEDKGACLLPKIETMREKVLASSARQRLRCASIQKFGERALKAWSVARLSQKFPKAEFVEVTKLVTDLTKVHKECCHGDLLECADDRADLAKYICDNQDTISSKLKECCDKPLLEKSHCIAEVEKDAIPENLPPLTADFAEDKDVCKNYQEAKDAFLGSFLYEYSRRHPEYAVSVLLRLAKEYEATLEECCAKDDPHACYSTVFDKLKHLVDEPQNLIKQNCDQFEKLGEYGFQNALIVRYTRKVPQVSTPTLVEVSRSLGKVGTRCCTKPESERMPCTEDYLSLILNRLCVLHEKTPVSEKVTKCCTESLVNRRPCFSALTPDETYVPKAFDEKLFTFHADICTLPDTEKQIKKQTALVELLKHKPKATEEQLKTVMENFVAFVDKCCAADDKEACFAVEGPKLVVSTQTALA

B1: N58 aptamer (SARS-CoV-2-N58) (ssDNA)
DNA: GCTGGATGTCACCGGATTGTCGGACATCGGATTGTCTGAGTCATATGACACATCCAGC
B1: no binding.
